The target of assay [1] is HCV E2 protein of genotype 1a expressed by vaccinia virus construct Q1a (Hepatitis C virus genotype 1a). Briefly: competition on GNA-captured E2; 20 µg/ml competitor against biotinylated CBH-4G.
The target of assay [2] is HCV 1b E2 deletion construct pDC-644 (Hepatitis C virus genotype 1b). Briefly: GNA capture ELISA, HEK-293 extracts. On the technique in general: An ELISA detects its analyte on a solid surface through an enzyme-linked reagent.
The target in assay [3] is HCV 1b E2 construct sf1b-E2 (amino acids 384-661 in pDisplay) (influenza virus; Hepatitis C virus genotype 1b). Briefly: GNA capture ELISA, HEK-293 extracts.
Assay [4] shares this target. The assay is described as follows: flow cytometry, CHO cells expressing sf1b-E2, 10 ug/ml. In general terms: A flow cytometer gives signals particle by particle.
In assay [5] the target is HCV E2 1a protein produced in mammalian cells (Rosa et al.) (Hepatitis C virus genotype 1a). The assay is described as follows: NOB assay, inhibition of E2 binding to CD81 expressing Molt-4 cells, flow cytometry.
In assay [6] the target is HCV E2 protein of genotype 1b expressed by vaccinia virus construct Q1b (Hepatitis C virus genotype 1b). Briefly: competition ELISA; competitor CBH-2 against biotinylated CBH-5.
Assay [7] addresses HCV E2 protein of genotype 1a expressed by vaccinia virus construct Q1a (Hepatitis C virus genotype 1a). The description is as above.
Assay [8] deals with HCV E2 protein of genotype 1b expressed by vaccinia virus construct Q1b (Hepatitis C virus genotype 1b). The assay is described as follows: competition ELISA; 20 µg/ml competitor against 2 µg/ml biotinylated CBH-2.
The target in assay [9] is HCV E2 protein of genotype 2b expressed by vaccinia virus construct Q2b (Hepatitis C virus genotype 2b). The description is as above.
Assay [10] has as its target HCV E2 protein of genotype 1a expressed by vaccinia virus construct Q1a (Hepatitis C virus genotype 1a). The assay is described as above.
Assay [11] addresses HCV E2 protein of genotype 2a expressed by vaccinia virus construct Q2a (Hepatitis C virus genotype 2a). Described as above.
Assay [12] deals with HCV 1b E2 deletion construct pDN-447 (Hepatitis C virus genotype 1b) (UniProt P29846). Briefly: GNA capture ELISA, HEK-293 extracts.
Assay [13] concerns the target HCV 1b E2 deletion construct pDN-470 (Hepatitis C virus genotype 1b) (UniProt Q9WMX2). The assay is described as follows: GNA capture ELISA, HEK-293 extracts.
Assay [14] deals with HCV 1b E2 deletion construct pDN-447 (Hepatitis C virus genotype 1b) (UniProt P29846). Briefly: flow cytometry, transiently transfected HEK-293 cells, 10 ug/ml.
The target in assay [15] is HCV 1b E2 deletion construct pDC-644 (Hepatitis C virus genotype 1b). The description is as above.
For assay [16], the target named is HCV 1b E2 deletion construct pDC-579 (Hepatitis C virus genotype 1b). The description is as above.
In assay [17] the target is HCV 1b E2 deletion construct pDN-470 (Hepatitis C virus genotype 1b) (UniProt Q9WMX2). The assay is described as above.
Assay [18] addresses HCV 1b E2 (Q1b) bound to GST-CD81-LEL (Hepatitis C virus genotype 1b; human) (UniProt P60033). The assay is described as follows: ELISA, 1b E2 captured by CD81-LEL; 50% of maximum binding.
The target of assay [19] is HCV E2 1a protein produced in mammalian cells (Rosa et al.) (Hepatitis C virus genotype 1a). The assay is described as follows: NOB assay.
For assay [20], the target named is HCV E2 protein of genotype 1b expressed by vaccinia virus construct Q1b (Hepatitis C virus genotype 1b). Briefly: competition ELISA; 25 µg/ml competitor against 5 µg/ml biotinylated CBH-5.
For assay [21], the target named is HCV E2 protein of genotype 1a expressed by vaccinia virus construct Q1a (Hepatitis C virus genotype 1a). The description is as above.
Assay [22] deals with HCV E2 protein of genotype 1b expressed by vaccinia virus construct Q1b (Hepatitis C virus genotype 1b). Briefly: competition ELISA; competitor CBH-5 against biotinylated CBH-2.
Assay [23] has as its target HCV E2 protein of genotype 2b expressed by vaccinia virus construct Q2b (Hepatitis C virus genotype 2b). Described as above.
The target in assay [24] is HCV E2 protein of genotype 1a expressed by vaccinia virus construct Q1a (Hepatitis C virus genotype 1a). The description is as above.
For assay [25], the target named is HCV E2 protein of genotype 2a expressed by vaccinia virus construct Q2a (Hepatitis C virus genotype 2a). The assay is described as above.
Assay [26] deals with denatured HCV 1b E2 protein (Q1b) (Hepatitis C virus genotype 1b). The assay is described as follows: GNA capture ELISA, denatured against native E2 (FIG. 9).
Assay [27] deals with HCV 1b E2 construct sf1b-E2 (amino acids 384-661 in pDisplay) (influenza virus; Hepatitis C virus genotype 1b). Briefly: flow cytometry, CHO cells expressing sf1b-E2.

The source of these data is patent US20060104980A1.

A word on the IC50: it is the concentration needed to halve the response being measured. Read a high IC50 as weaker potency. What is called EC50 is the midpoint of the concentration-response curve.

Consider HMAb CBH-2 (antibody), for which the percent inhibition of biotinylated CBH-4G binding in [1] is < 50%. Further, the OD in [2] was 0.1 to 0.5 od; in [3], > 0.5 od. In addition, the mean fluorescence in assay [4] was 338. The same substance gave an IC50 in [5] of 5 µg/mL. The percent inhibition of biotinylated CBH-5 binding in [6] and in assay [7] was 50% throughout. In addition, the percent inhibition of biotinylated CBH-2 binding in [8], in assay [9], in assay [10] and in assay [11] was > 75% throughout.
As to HMAb CBH-4B (antibody), the percent inhibition of biotinylated CBH-4G binding in assay [1] is < 50%. The OD in [12], in [2], in assay [3] and in [13] was > 0.5 od each time. In addition, the mean fluorescence in [4] is 241; in assay [14], 21; in [15], 18; in assay [16] it was 2; in assay [17] it was 9. In assay [18], the EC50 came out at 0.4 µg/mL. The IC50 in assay [19] was > 25 µg/mL.
For HMAb CBH-5 (antibody), the percent inhibition of biotinylated CBH-4G binding in assay [1] is < 50%. Also, the OD in assay [2] and in assay [3] was > 0.5 od in each case. In addition, the mean fluorescence in [4] was determined as 546; in assay [14] it was 2; in assay [15] it was 28; in [16], 2; in [17], 2. The percent inhibition of biotinylated CBH-5 binding in assay [20] and in [21] was 85% throughout. In addition, in assay [5], the IC50 is 2 µg/mL. The percent inhibition of biotinylated CBH-2 binding in assay [8] was > 75%; in [9], > 75%; in [10], > 75%; in assay [11], > 75%; in assay [22], 80%; in [23], 80%. The percent inhibition of biotinylated CBH-2 binding in [24] and in [25] was 80% in each case.
On to HMAb CBH-7 (antibody), for which the percent inhibition of biotinylated CBH-4G binding in assay [1] is < 50%. The OD in assay [12], in [2], in assay [3] and in assay [13] was > 0.5 od each time. The mean fluorescence in assay [4] worked out at 303; in assay [14], 26; in assay [15], 27; in [16], 2; in assay [17], 14. This substance also gave an IC50 in assay [5] of 7 µg/mL. In addition, in [10], the percent inhibition of biotinylated CBH-2 binding was 60%.
With HMAb CBH-8C (antibody), the percent inhibition of biotinylated CBH-4G binding in assay [1] was < 50%. Further, the OD in assay [2] and in assay [3] was > 0.5 od throughout. In [4], this substance yielded a mean fluorescence of 282. For the same substance, the 50% inhibitory concentration (IC50) in assay [5] amounted to 10 µg/mL. The percent inhibition of biotinylated CBH-2 binding in [8], in assay [9], in assay [10] and in assay [11] was > 75% in each case.
As for HMAb CBH-8E (antibody), the percent inhibition of biotinylated CBH-4G binding in assay [1] was < 50%. For the same substance, the OD in [2] is 0.1 to 0.5 od; in assay [3], > 0.5 od. The substance further displayed a mean fluorescence in [4] of 408. The percent inhibition of biotinylated CBH-5 binding in assay [20] and in [21] was 75% in each case. Further, in assay [5], the IC50 was determined as 8 µg/mL. The percent inhibition of biotinylated CBH-2 binding in [8], in [9], in assay [10] and in assay [11] was > 75% each time.
In the case of HMAb CBH-17 (antibody), the percent inhibition of biotinylated CBH-4G binding in [1] is < 50%. Besides, the OD in [12], in [3] and in [13] was > 0.5 od in each case. The same substance gave a percent of reactivity retained with denatured E2 in assay [26] of 90%. Also, the mean fluorescence in assay [4] turned out to be 23. This substance also gave an EC50 in assay [18] of 3 µg/mL. Moreover, the fold reduced staining relative to the other HMAbs in assay [27] amounted to 10 fold. In addition, the IC50 in assay [19] was > 25 µg/mL.
